Here are results for 116 sequences from the supplement of paper PMC10724198.

± gives the standard deviation of the averaged measurements.
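Further: PSI is a weighted mean of sequencing reads over stability bins, variants kept only with over 10 reads, mCherry proximal and sfGFP distal, peptide attached via GGGS linker.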

The test system of the series is Saccharomyces cerevisiae. As to the kind of experiment: protein stability index of tFT-peptide fusion (C-terminal peptide) (PSI (0-1 scale)); higher = more stable (slower turnover). Particulars: genetic background: wild type; temperature: 30 C.
Consider LKDITVWRPKRG, for which the protein stability index stood at 0.658 ± 0.12. With LKHHDSNESASR the figure was 0.651 ± 0.1; with LKKMIGPLRAGE, 0.686 ± 0.076; with LKLHDSNESASR, 0.651 ± 0.03. With LKLTFFCRQNIF the figure was 0.574 ± 0.0098. Under LKNIRYGIIKKE stands 0.68 ± 0.0085. Sequence LKRKKKHQMKRR came in with a protein stability index of 0.699 ± 0.028. Under LKSGRYSYFGSL stands 0.734 ± 0.086. Under LLAAVSPSHRAL stands 0.724 ± 0.021. Under LLAPSPPPPLPP stands 0.61 ± 0.13; under LLAYFCRRGVRH, 0.7232 ± 0.0071; under LLCSLRPLAVPP, 0.602 ± 0.039. LLDLCSNLLRSF registered a protein stability index of 0.757 ± 0.11. Under LLEKGHTRGLCF stands 0.663 ± 0.017; under LLFCMGSCGPVR, 0.624 ± 0.027; under LLFVVSLPSFPC, 0.636 ± 0.13. Under LLGFRLACTSGA stands 0.648 ± 0.0079; under LLGRWVAGSRGG, 0.746 ± 0.017; under LLHAGVCSVSFL, 0.718 ± 0.038. LLLPPAPPPPLS yielded a protein stability index of 0.621 ± 0.095. The sequence LLLVGGVSSWTV returned a protein stability index of 0.67 ± 0.014. With LLLVRNCQDSRQ the figure was 0.69 ± 0.057.

LLPFLPPPPCPP came in with a protein stability index of 0.72 ± 0.022.

With LLPFTLHIPLRP, the protein stability index is 0.6523 ± 0.0022. Under LLPGLVGMLSCM stands 0.602 ± 0.039; under LLPGPYPLLSDN, 0.732 ± 0.025.

As to LLPLAPVCVIIL, the protein stability index worked out at 0.54 ± 0.041. LLPLPCPPFPHS had a protein stability index of 0.674 ± 0.024. With LLPPPHHANHTA the figure was 0.6915 ± 0.0027.

For the sequence LLPRLRHPSRGK, the protein stability index turned out to be 0.73 ± 0.15. Sequence LLPSPISRNRAL yielded a protein stability index of 0.696 ± 0.0081. Under LLPSPLHGCTMS stands 0.676 ± 0.01; under LLPSPPPPTSLP, 0.728 ± 0.033; under LLPVLGFPLPFD, 0.75 ± 0.065. With LLRVLPPPPLPL the figure was 0.712 ± 0.11; with LLRVTVCELAYK, 0.55 ± 0.018; with LLSFLPPVFLLL, 0.514 ± 0.014. Regarding LLSGPTLSCVPT, the protein stability index worked out at 0.617 ± 0.043. LLSLHPRYPCTP came in with a protein stability index of 0.76 ± 0.047. With LLSLLPFGCLLL the figure was 0.536 ± 0.031; with LLSRLLLAPSSL, 0.65 ± 0.019; with LLSSATPSKFPS, 0.836 ± 0.021. As for LLSTPPIVSPPA, the protein stability index is 0.6987 ± 0.0031. With LLSVPCPLVCRL the figure was 0.699 ± 0.037; with LLSYLRNCCAEH, 0.687 ± 0.035; with LLTFSSCALPYR, 0.676 ± 0.092. In turn, LLTGKTVPKDST had a protein stability index of 0.705 ± 0.016. In the case of LLWGSSPDGGQG, the protein stability index turned out to be 0.694 ± 0.019. Under LLYLFMSSRFLW stands 0.6369 ± 0.003.

In the case of LMCSSGGGCSCG, the protein stability index is 0.706 ± 0.023. With LNGRYGGFGHRC the figure was 0.7009 ± 0.007. In turn, LNLLCGFRQVGG had a protein stability index of 0.701 ± 0.013. LNNLTVVDVAGL had a protein stability index of 0.69 ± 0.017. With LNTETNVVLLEG, the protein stability index came out at 0.671 ± 0.035. With LNTVRKSKDKAI, the protein stability index turned out to be 0.706 ± 0.19. For the sequence LNVVSRLLACGL, the protein stability index worked out at 0.642 ± 0.022.

The sequence LPAARQSVLPPA registered a protein stability index of 0.732 ± 0.0085. LPASPPLSGLIF returned a protein stability index of 0.823 ± 0.14. With LPCFPSLNRNPL the figure was 0.7397 ± 0.0015; with LPCPSPPPSPLS, 0.675 ± 0.06.

In turn, LPCVSTCCSCLL returned a protein stability index of 0.706 ± 0.011. Under LPDSHHQTMGVF stands 0.711 ± 0.055; under LPGCGSYLSGNV, 0.651 ± 0.056. In turn, LPKTSPRSRRER came in with a protein stability index of 0.6868 ± 0.0053. With LPLIPTSSRRHS the figure was 0.682 ± 0.024; with LPLLSSLLALLY, 0.647 ± 0.042. On to LPLPHAPPPPPT, for which the protein stability index turned out to be 0.7233 ± 0.0026. In turn, LPLPPALPSPSL returned a protein stability index of 0.658 ± 0.027. Consider LPLPPPCSRVLF, for which the protein stability index amounted to 0.644 ± 0.074. With LPLPPPPLLPAP the figure was 0.732 ± 0.057; with LPLPPPPPCCSF, 0.701 ± 0.015. With LPMGGMFVARSI, the protein stability index worked out at 0.653 ± 0.059. LPPDSLRPPGPP showed a protein stability index of 0.761 ± 0.017. Under LPPFPLPPPLLS stands 0.68 ± 0.1; under LPPGDPPPRGPP, 0.597 ± 0.045. LPPHAPIPRWKP: the protein stability index amounted to 0.776 ± 0.17. Under LPPHPPSPPFLP stands 0.588 ± 0.023. With LPPPFPWSPSGP the figure was 0.698 ± 0.066; with LPPPLLPTPMAP, 0.661 ± 0.09. In the case of LPPPPRPRSLLS, the protein stability index is 0.693 ± 0.047. Sequence LPPPPSPLPPRP returned a protein stability index of 0.627 ± 0.048. Under LPPPRPLPIPSP stands 0.711 ± 0.047. Under LPPRLPLSLDVL stands 0.675 ± 0.086.

Turning to LPPTPTLPLVPP, the protein stability index came to 0.7153 ± 0.0053. On to LPRASPKARTLR, for which the protein stability index amounted to 0.714 ± 0.075. The sequence LPRASQFLLPVP had a protein stability index of 0.651 ± 0.065. With LPRFTPPLPPPL the figure was 0.734 ± 0.0096; with LPRNQPVPFPCH, 0.677 ± 0.0094.

The sequence LPRPPPFSPPPP had a protein stability index of 0.651 ± 0.11. Under LPRREQILRKGS stands 0.71 ± 0.023; under LPRSRLAPPPCS, 0.73 ± 0.015; under LPSARLPPPPPR, 0.683 ± 0.021.

Take LPSEAPSLLAPP: the protein stability index amounted to 0.663 ± 0.084. Under LPSHAPRRPTFP stands 0.7403 ± 0.0056. Sequence LPSLLPESGLCF returned a protein stability index of 0.604 ± 0.0086. Under LPSPPPSSPLPP stands 0.56 ± 0.048; under LPSPYPPPRPLP, 0.711 ± 0.034. Under LPSQRPWLAQSI stands 0.717 ± 0.01; under LPSSAVDLYTRP, 0.6468 ± 0.0059; under LPSSPFPPLPVT, 0.6889 ± 0.0042.

For LPSTQSPPPPLP, the protein stability index is 0.705 ± 0.077. With LPTASLLPPPPP the figure was 0.626 ± 0.078; with LPTKPVPIPRHY, 0.693 ± 0.052. The sequence LPTPSQYFFPPP had a protein stability index of 0.736 ± 0.018. Turning to LPTPSSSYLYPA, the protein stability index worked out at 0.611 ± 0.017. With LPTPTPPPALRS, the protein stability index was determined as 0.689 ± 0.053. In turn, LPTYPPTLPVPS returned a protein stability index of 0.638 ± 0.04. In turn, LPVPFFPPCPFR showed a protein stability index of 0.732 ± 0.012.

LPYHSSPPSSSP returned a protein stability index of 0.702 ± 0.046. With LQAKRTAGPGEH the figure was 0.68423 ± 0.00012; with LQIFRSRCFGGL, 0.722 ± 0.13; with LQKRKQMRKIKE, 0.646 ± 0.019. LRALLSHPRRCA: the protein stability index was 0.625 ± 0.034. With LRAPPPPAQPFV the figure was 0.694 ± 0.012. Under LRFELCLCIEPA stands 0.53 ± 0.059; under LRFIIPSDLSFV, 0.696 ± 0.03.
